From patent JP2024051908A

Key:
[1] = biological target: BA.5スパイクRBD (SARS-CoV-2 Omicron BA.5)
[2] = biological target: BA.2スパイクRBD (SARS-CoV-2 Omicron BA.2)

B1: MO1 (antibody, V domains shown)
VH: EVQLVESGGGMVQPGRSLRLSCAASGFTFDDYAMHWVRQIPGKGLEWVSGISWNSGDIGYADSVKGRFTISRDNAKNSLHLQMNSLRAEDTALYYCAKDKTYDSPGYFLNSFDYWGQGTLVTVSS
VL: DIQMTQSPSSLSASVGDRVTITCRASQGISSYLVWYQQKPGKAPKFLIYAASTLQSGVPSRFSGSGSGTDFTLTISSLQPEDFATYYCQQLYSYPITFGQGTRLEIK
Kd [1]: 11 nM
Kd [2]: 3.3 nM

B2: MO2 (antibody, V domains shown)
VH: EVQLVESGGGLVKPGGSLSLSCVASGFTFSDYRMSWIRQAPGKGLEWVSYISSSSGYKDYADSVKGRFTISRDNAKNSLSLQMNSLRVEDTAVYYCARDVGVVTATPGYWGQGVPVSVSS
VL: DIVMTQSPATLSVSPGERATLSCRASQSVGSNLAWYQQKPGQAPRLLIYDTSTRATGVPARFSGSGSGTDFTLTISSLQSEDFAVYLCHQYDQWPPAFGPGTRVDIK
Kd [2]: 2 nM
